Reference: IntAct's records for PubMed 21037566

Molecular target: lef_bacan lef (UniProt P15917)

Row | Substance | effect of a mutation on the interaction
1 | Protective antigen (Bacillus anthracis) (from UniProt P13423) H240A | disrupting interaction
2 | Protective antigen (Bacillus anthracis) (from UniProt P13423) L216A | disrupting interaction
